Measurements as given in US20060062793A1, “Modified antibodies to prostate-specific membrane antigen and uses thereof” (priority 2004, published 2006).

Legend:
[1] = test system: CD-1 mice; experiment: Single IV administration toxicity of deJ591-DM1 and DM1 in CD-1 mice; type: in vivo, mouse
[2] = test system: LNCaP tumor xenografts; experiment: Murine J591-DM1 immunoconjugate in BALB/c mice with LNCaP xenografts; type: in vivo, mouse; conditions: unconjugated, equimolar, intraperitoneal qday x 5 days
Description: Tumor xenografts of LNCaP cells were established in the right flank of BALB/c mice (5×10^6 cells injected subcutaneously). Animals were observed until tumors were visible (7-10 mm). Animals were then treated with PBS, unconjugated mAb J591, unconjugated DM1, both mAb J591 and DM1 but unconjugated, and J591-DM1 immunoconjugate (100, 200, 300, and 400 mcg/day intraperitoneal qday×5 days). The mAb J591 was modified to introduce dithiopyridyl groups and then conjugated to DM1 via a hindered disulfide bond, as described above. Unconjugated mAb J591 and DM1 were given in equimolar concentrations.
Tumor xenografts of both LNCaP cells (5×10^6 cells injected subcutaneously in the right flank) and PC3 cells (3×10^6 cells injected subcutaneously in the left flank) were established in BALB/c mice. Animals were observed until LNCaP tumors were visible (PC3 tumors were present but much smaller). Animals treated with J591-DM1 immunoconjugate: 300 mcg/day intraperitoneal qday×5 days
Tumor xenografts of LNCaP cells were established subcutaneously in the right flank of BALB/c mice. […]
All animals were photographed pre- and post-treatment and tagged for identification. Tumor volume was determined (length×width×depth) and closely followed. […]

[3] = test system: androgen-independent PSMA-positive 22RV1 xenograft; experiment: deJ591-DM1 efficacy in castrate or intact scid mice bearing 22RV1 xenograft; type: in vivo, mouse
Description: Prostate tumors can be broadly classified as either androgen-dependent or androgen-independent. […] The 22RV1 cell line was originally developed as androgen-independent and can be grown as a xenograft in C.B-17 scid mice that have been left either intact or castrated. […] This was approximately twice the time required for the tumors of intact mice to reach 1000 mm^3 (9.3 days). C.B-17 scid mice bearing CWR22 xenografts approximately 200 mm^3 in size received IV injections (200 μL constant volume) of the test articles according to the dosage and schedule shown in the Table 24.

[4] = test system: recurrent, progressing prostate cancer; experiment: Phase I trial of four weekly doses of 111In-DOTA-deJ591; set-up: species or system human; conditions: human, in vivo
Description: Patients with recurrent, progressing prostate cancer received four weekly doses of ^111In-DOTA-deJ591. Doses were escalated in cohorts of three patients and ranged from 62.5-500 mg/m2 (total). […] After the first dose, patients were imaged on the day of injection (day 0) and days 1, 2, 4 and 7.
Serum PK, immune reaction and toxicity were evaluated after each dose for a minimum of 12 weeks.

[5] = test system: prostate cancer; conditions: after each radiolabeled dose over five months
Description: Dose twelve was radiolabeled with a therapeutic quantity of ^90Yttrium (19 mCi) calculated to deliver less than a 150 rad dose to the blood.

[6] = test system: vascular endothelium of solid tumors; experiment: Phase I trial of 111In-DOTA-deJ591 in refractory non-prostate solid tumors; type: in vivo, human
Description: Eligible patients were those with refractory solid tumor malignancies whose tumor types are known to express PSMA on the neovasculature.
Patients the participated in the study included eight renal cell cancer patients, four bladder cancer patients, two colon cancer patients, and one pancreas cancer patient.

[7] = test system: hormone-refractory prostate cancer metastases; experiment: Nuclear imaging with 111In or 177Lu labeled deJ591 versus standard imaging; type: in vivo, human
Description: The antibody scans were compared to standard imaging studies (bone, CT or MR scans) obtained on each patient to assess the underlying sensitivity, specificity, and accuracy of deJ591 targeting to metastatic sites. Bony and soft tissue metastases were evaluated independently.

[8] = Pharmacokinetics of deJ591 and deJ591-DM1 in cynomolgus monkeys; type: in vivo; conditions: Monkey, male & female
[9] = test system: PSMA-positive human LNCaP tumors; experiment: Biodistribution of 111In labeled MAbs in nude mice bearing LNCaP tumors; type: in vivo, mouse
Description: Prior to use, the cells were trypsinized, counted and suspended in Matrigel (Collaborative Biomedical Products, Bedford, Mass.). Nu/Nu Balb C mice 8-10 weeks of age were inoculated, in the right and left flanks, with a suspension of 5×10^6 LNCaP cells in Matrigel (BD Biosciences, Bedford Mass.). After a period of 14-18 days, tumors (100-300 mg) had developed. The PSMA-negative DU145 and PC3 cells were implanted in nude mice in an identical manner.
The PSMA-positive and PSMA-negative tumor bearing mice were injected, via the tail vein, with 80 KBq of the iodinated MAb (400 MBq/mg) in 200 μL of PBS (pH 7.4, 0.2% BSA). Groups of animals (3-8/group) were sacrificed after 2, 4 or 6 days. The major organs and tumors were recovered. The tissue samples were weighed and counted, with appropriate standards in an automatic NaI(Tl) counter. These measured relative activity data (cpm) were background corrected and expressed as a percentage of the injected dose per gram (% ID/g). […] J415, J591 and 7E11 were labeled with ^111In (100 MBq/mg). 80 KBq of the ^111In labeled MAbs were injected in groups of animals. The % ID/g in various organs and tumor tissues was determined at 2-6 days post injection in a similar way as described for ^131I labeled MAbs.

| Compound | toxicity compared with deJ591-DM1 at equimolar dosages [1] | mortality [2] | Relative TGD ([3]; Castrate mice, 240 μg/kg DM1-equivalents, q3dX5) | change in growth delay for castrate mice relative to androgen-intact mice ([3]; q3dx5) | plasma half-life [4] | tumor localization to known tumor sites [5] | Liver uptake ([6]; 5 mg) | Plasma clearance (T1/2) ([6]; 5 mg) | Liver uptake ([6]; 10 mg) | Plasma clearance (T1/2) ([6]; 10 mg) | Liver uptake ([6]; 20 mg) | Plasma clearance (T1/2) ([6]; 20 mg) | negative mAb scans in patients without documented soft tissue metastases ([7]; fifteen patients) | specificity, bone ([7]; seven patients with negative bone scans) | Total deJ591 AUC ([8]; 6 mg/kg (72 mg/m^2), study KLA W-171) | Total deJ591 AUC ([8]; 10 mg/kg (120 mg/m^2), study CTBR 57355) | tumor uptake over time [9] |
| --- | --- | --- | --- | --- | --- | --- | --- | --- | --- | --- | --- | --- | --- | --- | --- | --- | --- |
| COc1cc2cc(c1Cl)N(C)C(=O)C[C@H](OC(=O)[C@H](C)N(C)C(=O)CCS)[C@]1(C)O[C@H]1[C@H](C)[C@@H]1C[C@@](O)(NC(=O)O1)[C@H](OC)/C=C/C=C(\C)C2 [DM1, reference compound] | tended to be less toxic than deJ591-DM1 at lower dosages | died within 48 hours of treatment completion | 1.4 | 1.4 fold | – | – | – | – | – | – | – | – | – | – | – | – | – |
| deJ591 | – | – | – | – | varied with dose | excellent | 28%±14% | 21 ± 11 h | 17%±7% | 24 ± 6 h | 13%±5% | 37 ± 8 h | 100% | 100% | 25200 µg·h/mL | 49400 µg·h/mL | gradually increased with time and is quite similar to that of 7E11 |
